Source: the Human Domainome abundance scans (Beltran et al. 2025)

B1: Ankyrin-3, residues 4094 to 4171; numbered along this chain, Q12955 (parent)
chain: MAIVADHLGLSWTELARELNFSVDEINQIRVENPNSLISQSFMLLKKWVTRDGKNATTDALTSVLTKINRIDIVTLLE

Variants of: B1
Test: abundance fitness (aPCA) (normalised: wild type 0, dead -1); higher = more abundant; growth selection in yeast, the domain comes from the species named
Conditions: Homo sapiens

Abundance fitness: each site, then its substitutions
K67: P -0.646; A -0.135; S -0.285; Q -0.056; C -0.436; W -0.667; L -0.641; V -0.276; G -0.525; H -0.247; R -0.091; T -0.228; N -0.48
I68: R -0.965; L -0.219; W -0.878; S -0.935; T -0.987; K -0.606; F -0.963; A -0.868; V -0.284; E -0.964; G -0.916; Q -0.806; M -0.244; P -0.37; C -0.402
D59: S -0.118; A -0.032; G -0.011; R -0.072; M 0.022; P -0.058; C -0.036; V -0.117; F -0.565; E -0.103; N -0.228; K 0.052; Q 0.052; H -0.058; Y -0.253; W -0.201; L -0.133
T58: S 0.106; W -0.123; V 0.05
A60: T -0.283; I -0.28; Q -0.021; G -0.233; C -0.09; W -0.458; Y -0.417; F -0.086; S -0.134; P -0.993; K -0.083; R -0.081; E 0.061; L -0.074; D -0.627; N 0.219; V -0.019
L61: I -0.355; S -0.665; M -0.223; T -1.05; A -0.732; F -0.823; P -0.921; R -0.412; G -0.954
T62: L -0.045; H -0.297; M 0.06; K 0.097; P -0.102; I -0.386; C -0.292; R 0.068; F -0.175; N -0.44; G -0.201; W -0.434; A 0.039; Q -0.201; Y -0.12; E -0.297; V -0.057
V64: H 0.132; R -0.298; W -0.644; Q 0.064; G -0.05; T -0.087; N -0.236; A -0.081; L 0.111; K -0.333; F 0.111; Y -0.166; P 0.037; E 0.001; M 0.064; C 0.05; D -0.858; S -0.06
L65: S -0.884; A -1.14; E -0.824; W -0.901; K -0.528; Y -0.737; F -0.752; D 0.076; I -0.847; C -0.505; Q -1.05; N -0.426; V -0.779; H -0.973; G -0.825; P -0.701; M -0.651; R -0.902
T66: L -0.102; R -0.07; V 0.018; K -0.1; M -0.054; A -0.14; G -0.126; S -0.173; E -0.182; I -0.088; Q 0.118; F -0.052; P -0.535; C -0.21; N -0.112; H -0.013; W -0.173
S63: Y -0.003; E -0.075; G -0.031; N -0.106; R -0.004; I -0.287; C -0.11; A -0.014; M -0.046; D 0.054; Q -0.012; P -0.137; V -0.061; H -0.051; W -0.405; T 0.023; K 0.002; F -0.153
N69: E -0.032; D -0.178; A -0.339; G 0.073; C -0.549
